Test results: patent US20030211076A1, “Compositions and methods for treatment of proliferative disorders” (priority 2003, published 2003)

Columns and labels:
lysyl oxidase (LO) = target: T1, lysyl oxidase (LO) (Bos taurus, UniProt P33072); experiment: LO-dependent H2O2 release, horseradish peroxidase-coupled fluorescence assay (substrate potential for LO); assay type: biochemical
T1 construct: per mature LO molecule (32 kD); from tissue
T1 sequence (P33072 170-418): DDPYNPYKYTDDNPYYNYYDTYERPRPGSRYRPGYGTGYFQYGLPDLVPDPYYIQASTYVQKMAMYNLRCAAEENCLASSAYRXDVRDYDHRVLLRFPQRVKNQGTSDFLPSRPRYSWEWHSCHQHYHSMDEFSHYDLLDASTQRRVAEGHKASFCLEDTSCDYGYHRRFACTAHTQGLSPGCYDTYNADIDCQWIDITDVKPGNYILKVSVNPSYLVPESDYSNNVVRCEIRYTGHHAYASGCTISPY
Description: The oxidation of a primary amine substrate by LO yields stoichiometric amounts of the corresponding aldehyde, hydrogen peroxide and ammonia, as shown: RCH2NH2+O2+H2O→RCHO+H2O2+NH3 (Kagan, 1986). To assess the substrate potential of FGF2, LO-dependent H2O2 release was monitored in assays using FGF2 as the sole substrate, using both the optimum temperature for LO activity of 55° C. and the physiological temperature of 37° C. (Trackman et al., 1981).
LO reaction with FGF2 as a substrate was assessed by a horseradish peroxidase-coupled fluorescence assay for H2O2 production. Reaction mixtures contained 0.25 mg of sodium homovanillate(HVA), 40 μg of HRP, and FGF2 at doses as indicated below in 0.05 M sodium borate buffer, pH 8.2, in a final volume of 2 ml. Assays were initiated by the addition of LO to reaction mixtures. H2O2 release was continuously monitored at excitation and emission wavelengths of 315 and 425 nm, respectively, at a constant temperature of 55° C. or 37° C., as specified, in the thermostatted cuvette chamber of an SLM Aminco Bowman Series 2 Luminescence Spectrometer. All activity data were corrected for background rates of H2O2 release determined in complete assay mixtures supplemented with 200 μM BAPN, an irreversible inhibitor of LO. In FIG. 4, solid curves represent the time course of H2O2 release at 55° C. in the reaction of 0.16 μM LO with 0.23 (a), 0.45 (b) and 0.9 (c) μM FGF2, respectively. Dotted curve (d) represents the time course of H2O2 release in the reaction of 0.16 μM LO with 0.9 μM FGF2 at 37° C. The same data were obtained from three separate experiments.
Using the fluorometric assay (Trackman et al., 1981) to monitor LO-dependent H2O2 release in vitro, the substrate potential of other growth factors was also assessed. Major members of the FGF family tested included FGF 1, 4, 5, 6, 7 and EGF (note: All factors are human recombinant forms purchased from R & D Systems, Inc., Minneapolis, Minn.).
A human recombinant disulfide-linked dimer of VEGF165 (MW: 42 kDa)(R & D Systems) as a sole substrate was tested by using the standard in vitro LO catalysis assays as described above for FIG. 4 (Trackman et al., 1981). Curves represent the time course of H2O2 release at 55° C. (a) or 37° C. (b) in the reaction of 0.10 μM LO with 0.45 μM VEGF165. All activity data were corrected for background rates of H2O2 release determined in complete assay mixtures supplemented with the same amounts of LO preincubated with 100 μM BAPN for 15 min at 37° C. The same data were obtained from three separate experiments.
The standard in vitro LO catalysis assays as described above for FIG. 4 (Trackman et al., 1981) using human recombinant PDGF-AB (R & D Systems) as a sole substrate was tested. […] In FIG. 19, curves represent the time course of H2O2 release at 55° C. (a) and 37° C. (b) in the reaction of 0.11 μM LO with 0.46 μM PDGF-AB, respectively. All activity data were corrected for background rates of H2O2 release determined in complete assay mixtures supplemented with the same amounts of LO preincubated with 100 μM BAPN for 15 minutes at 37° C. The same data were obtained from three separate experiments.
To analyze the substrate potential of Tat, the standard in vitro LO catalysis assays as described in FIG. 4 (Trackman et al., 1981) was performed at the optimum temperature of 55° C. and at the physiological temperature of 37° C. A recombinant Tat with 9 lysines in a total of 86 amino acids was used as a sole substrate. FIG. 12A represents a dose and temperature-dependent response. Curves represent the time course of H2O2 release at 55° C. (solid) or 37° C. (dotted) in the reaction of 0.10 μM LO with 0.22 (a and d), 0.43 (b and e) and 0.85 (c and f) μM Tat, respectively. All activity data were corrected for background rates of H2O2 release determined in complete assay mixtures supplemented with the same amounts of LO preincubated with 100 μM BAPN for 15 min at 37° C. […]

[1] = system: porcine pulmonary arterial vascular endothelial cells (VEC); experiment: Growth of Tat-stimulated vascular endothelial cells (cell counting, phase-contrast microscopy); assay type: cell-based; details: 3 days, 5% FBS/M199
Description: Stimulation of cell proliferation of porcine pulmonary arterial vascular endothelial cells (VEC) was tested with LO-oxidized Tat. VEC (2×10^4) were plated and incubated overnight in 35 mm-dishes containing 2 ml 15% FBS/M199 medium, and then refed with 5% FBS/M199 with different treatment regimens as shown in A, B and C of FIG. 13. FIG. 13A represents a dose response of Tat-stimulated cell growth. Media were supplemented with Tat at the indicated doses and cells were incubated for additional 3 days. Cultures were refed once during the incubation period with fresh media supplemented with Tat at indicated doses. Cells were harvested by trypsinization and counted with a hemacytometer. FIG. 13B represents the LO inhibition of Tat-stimulated cell growth. FIG. 13C represents the effects of inactivation of LO by BAPN on Tat-stimulated cell growth. LO: 3 or 10 nM, Tat: 10 ng ml^−1, BAPN: 100 μM. Data represent the means (±sd) of three separate experiments each assessed with triplicate dishes.
Numerical and morphological alterations in Tat-stimulated VEC cells treated with LO were observed under phase-contrast microscopy (25'). Cells were cultured as described in FIG. 13 and treated with additives as indicated below. The following represents FIG. 14 phase contrast microscopy: A, control; B, 10 ng ml^−1Tat; C, 10 ng ml^−1 Tat+3 nM LO; D, 10 ng ml^−1 Tat+3 nM LO that was preincubated with 100 μM BAPN for 15 min at 370; E, 100 μM BAPN, alone, and F, 3 nM LO, alone.

VEC on Matrigel = experiment: Angiogenic response of Tat-stimulated VEC on Matrigel; assay type: cell-based; details: 10 ng/ml Tat, 1 h preincubation and 3 h Tat exposure
Description: VEC grown on Matrigel, a solid gel of basement membrane proteins, rapidly align and form capillary-like structures providing a convenient in vitro model for angiogenesis studies (Albini et al., 1995; Grant et al.). Tat has been reported to enhance this in vitro morphogenesis of VEC consistent with its angiogenic property (Albini et al., 1995).
Cells (3×10^5) were plated on Matrigel-coated dishes. After 1 h incubation, various reagents were added to each culture. […] The following represents FIG. 15 phase-contrast microscopy: A, control; B, 10 ng ml^−1 Tat; C, 10 ng ml^−1 Tat+10 nM LO; D, 10 ng ml^−1 Tat+10 nM LO that was preincubated with 100 μM BAPN for 15 min at 370; E, 100 μM BAPN, alone, and F, 10 nM LO, alone.

Tat: recombinant HIV-1 Tat with 9 lysines in a total of 86 amino acids
maximum release of H2O2 per mole of Tat (lysyl oxidase (LO); 37° C., 0.1 μM LO, 0.22 μM Tat): 4.85 moles of H2O2 per mole of Tat
maximum release of H2O2 per mole of Tat (lysyl oxidase (LO); 37° C., 0.1 μM LO, 0.43 μM Tat): 4.75 moles of H2O2 per mole of Tat
maximum release of H2O2 per mole of Tat (lysyl oxidase (LO); 37° C., 0.1 μM LO, 0.85 μM Tat): 4.80 moles of H2O2 per mole of Tat
H2O2 released per mole of Tat, time course (lysyl oxidase (LO); 37° C., 0.1 μM LO, 20 min): 4.05±0.05 moles of H2O2 released per mole of Tat
H2O2 released per mole of Tat, time course (lysyl oxidase (LO); 37° C., 0.1 μM LO, 30 min): 4.80±0.04 moles of H2O2 released per mole of Tat
maximum release of H2O2 per mole of Tat, average (lysyl oxidase (LO); 37° C., 0.1 μM LO, average over 0.22, 0.43 and 0.85 μM Tat): 4.80±0.05 moles of H2O2 per mole of Tat
molar ratio of H2O2 released per mole of Tat at the plateau (lysyl oxidase (LO); 55° C., 0.1 μM LO, 0.22 μM Tat): 8.42
molar ratio of H2O2 released per mole of Tat at the plateau (lysyl oxidase (LO); 55° C., 0.1 μM LO, 0.43 μM Tat): 8.88
molar ratio of H2O2 released per mole of Tat at the plateau (lysyl oxidase (LO); 55° C., 0.1 μM LO, 0.85 μM Tat): 9.31
molar ratio of H2O2 released per mole of Tat, mean±standard deviation (lysyl oxidase (LO); 55° C., 0.1 μM LO, mean over 0.22, 0.43 and 0.85 μM Tat): 8.87±0.45
substrate of LO (in words) (lysyl oxidase (LO); factor as sole substrate, LO-dependent H2O2 release in vitro): excellent substrate of LO
dose of maximum stimulation of cell proliferation [1]: 10 ng/mL
formation of capillary like structures (VEC on Matrigel): facilitated the formation of capillary like structures
